Measured values published in patent US20260116991A1 (HAINAN SIMCERE ZAIMING PHARMACEUTICAL, published 2026).
Residue numbers refer to the chain shown, from its start.

B1: F1.42.8 human-murine chimeric antibody (antibody, human IgG1, kappa, V domains shown)
VH: HVQLQQPGAELVKPGASVKLSCKASGYTFTSYWMHWVRQRPGQGLEWIEMIHPNSGSTNYNEKFKSKATLTVDKSSSTAYMQLSSLTSEDSAVYYCARGNYNSSLYAMDYWGQGTSVTVSS
VL: DIQMTQTTSSLSASLGDRVTISCSASQGISNYLNWYQQKPDGTVKLLIYYASNLHSGVPSRFSGSGSGTAYSLTISNLEPEDIATYYCQQYSILPYTFGGGTKLEIKR
B2: F1.92.17 human-murine chimeric antibody (antibody, human IgG1, kappa, V domains shown)
VH: EVQLQQSGPELVKPGASVKMSCKASGYTFTDYNMHWVRQSHGKSLEWIGYINPNNGDTIYNQNFKGKATLTVNKSSSTAYMELRSLTSEDSAVYYCSRTITYYYSMDYWGPGTSVTVSS
VL: QIVLTQSPALMSASPGEKVTMTCSASSSVSYMYWYQQKPRSSPKPWIYLTSNLASGVPARFSGSGSGTSYSLTISSMEAEDAATYYCQQWSSNPLTFGAGTKLELKR
B3: F1.41.17 human-murine chimeric antibody (antibody, human IgG1, kappa, V domains shown)
VH: EVQLVESGGDSVKPGGSLKLSCAASGFTFSSYGMSWVRQTPDKRLEWVATINSGGSYTYYQDSVKGRFTISRDNAKNTLYLQMSSLKSEDTAIYYCVRHHYGSSYDYFDYWGQGTTLTVSS
VL: DIVMTQAAPSVPVMPGESVSISCRSSKSLLHSNGNTHLYWFLQRPGQSPQLLIYRMSNLASGVPDRFSGSGSGTAFTLRISRVEAEDVGVYYCMQHLEYPLTFGAGTKLELKR
B4: F1.83.6 human-murine chimeric antibody (antibody, human IgG1, kappa, V domains shown)
VH: QVQLQQSGPELVKPGASVKISCKASGYAFSSSWMNWVKQRPGKGLEWIGRIYPGDGDTNYNGRFKGKATLTVDKSSSTAYMQLSSLTSEDSAVYFCARGGVFTMALDHWGQGTTLTVSS
VL: DIQMTQSPSSLSASLGGKVTITCKASQDINKYIAWYQHKPGKGPRLLIHYTSTLQPGIPSRFSGSGSGRDYSFSISNLEPEDIATYYCLQYDNLFTFGGGTKLEIKR
B5: F1.78.24 human-murine chimeric antibody (antibody, human IgG1, kappa, V domains shown)
VH: QVQLQQSGAELVKPGASVKMSCKASGYTFTTYPIEWMKQNHGKSLEWIGNFHPYNDDTNYNVKFKGKATLTVEKSSSTVYLELSRLTSDDSALYYCARRREYYGSFDVWGTGTTVTVSS
VL: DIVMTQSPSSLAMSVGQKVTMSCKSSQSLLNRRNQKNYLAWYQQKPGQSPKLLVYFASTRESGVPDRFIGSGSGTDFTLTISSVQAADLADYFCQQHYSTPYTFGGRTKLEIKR
B6: F1.2.14 human-murine chimeric antibody (antibody, human IgG1, kappa, V domains shown)
VH: RVQLQQSGAELVKPGASVRMSCKASGYTFTAYSIEWMKQNLGKSLEWIGNFRPYNDDTKYNENFKGRATLTVEKSSATVYLELSRLTSDDSAVYYCARSGPTDYFDYWGQGTTLIVSS
VL: DIQMTQSPASLSASVGETVTITCRASDNIYSYLAWYQQKQGQSPQLLVYNAKTLAEGVPSRFSGSGSVTQFSLKIISLQPEDFGTYYCQHHFGTPRTFGGGTKLEIKR
B7: F1.21.8 human-murine chimeric antibody (antibody, human IgG1, kappa, V domains shown)
VH: EVQLQQSGPELVKPGASVKISCKTSGFLFTGHYMHWVKSSHGNILDWIGYIYPYNAISFYNQKFKGKATLTVDKSSNTAYMELRSLTSEDSAVYYCARGDYGNYVTAYWGQGTLVTVSA
VL: DVLMTQTPLSLPVSLGDQASISCRSSQSIVHSSGNTYLEWYLQKPGQSPKLLIYKVSNRFSGVPDRFSGSGSGTDFTLKISRVEAEDLGVYYCFQGSHLPWTFGGGTKLDIKR
B8: F2.152.3 (antibody, human IgG1, kappa, V domains shown)
VH: EVQLQQSGPELVKPGASVKMSCKASGYTFTDYYMTWVKQSHGKSLEWIGRVNPRNGDTTYNQKFEGRATLTLDKSLSTAFMQLNSLTSEDSAVYYCINSKGHFDYWGQGTTLTVSS
VL: B7 VL with S33N, Y41F, L51S, L99V, W101P, G105A, D110E, I111L
notes: Human-murine chimeric antibody
B9: hAb006LH1L1a (antibody, human IgG1, V domains shown)
VH: EVQLVQSGAEVKKPGSSVKVSCKASGYTFSDYEIHWVRQAPGQGLEWMGAIDPKTGNTAYNQKFMGRVTITADKSTSTAYMELSSLRSEDTAVYYCTRYFSFAYWGQGTLVTVSS
VL: DIVMTQTPLSLPVTPGEPASISCRSSQTFVHSDGNTYLQWYLQKPGQSPQLLIYKVSNRFSGVPDRFSGSGSGTDFTLKISRVEAEDVGVYYCFQGSHVPYTFGQGTKLEIK
notes: Humanized F3.38.7; VH H1 + VL L1a; expressed as human IgG1
B10: hAb006LH2L1a (antibody, human IgG1, V domains shown)
VH: B9 VH with S30T
VL: B9 VL
notes: Humanized F3.38.7; VH H2 + VL L1a; expressed as human IgG1
B11: hAb007LH1L1a (antibody, human IgG1, V domains shown)
VH: B9 VH with I34M, A50T, K54E, M65K, Y99P, F100Y, F102L, A103T
VL: B9 VL with T28S, N35D
notes: Humanized F3.81.19; VH H1 + VL L1a; expressed as human IgG1
B12: hAb006LH3L1a (antibody, human IgG1, V domains shown)
VH: B9 VH with S30T, I70L
VL: B9 VL
notes: Humanized F3.38.7; VH H3 + VL L1a; expressed as human IgG1
B13: hAb007LH2L1a (antibody, human IgG1, V domains shown)
VH: B9 VH with S30T, I34M, A50T, K54E, M65K, Y99P, F100Y, F102L, A103T
VL: B9 VL with T28S, N35D
notes: Humanized F3.81.19; VH H2 + VL L1a; expressed as human IgG1
B14: hAb007LH3L1a (antibody, human IgG1, V domains shown)
VH: B9 VH with S30T, I34M, A50T, K54E, M65K, I70L, Y99P, F100Y, F102L, A103T
VL: B9 VL with T28S, N35D
notes: Humanized F3.81.19; VH H3 + VL L1a; expressed as human IgG1

How the values were obtained:
[1] = target: T1, murine GPC3-his protein (Sino Biological, Cat. No. 50989-M08B) (murine, UniProt Q8CFZ4 25-558); test: ELISA, coated murine GPC3-His;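 further: antigen coated on plates at 1 µg/mL, test antibody bound for 2 h at 37 °C, detected with HRP-conjugated secondary antibody and TMB substrate after acid stop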
T1 construct: Bought protein; also called murine GPC3 protein
T1 sequence (Q8CFZ4 25-558 limits assumed): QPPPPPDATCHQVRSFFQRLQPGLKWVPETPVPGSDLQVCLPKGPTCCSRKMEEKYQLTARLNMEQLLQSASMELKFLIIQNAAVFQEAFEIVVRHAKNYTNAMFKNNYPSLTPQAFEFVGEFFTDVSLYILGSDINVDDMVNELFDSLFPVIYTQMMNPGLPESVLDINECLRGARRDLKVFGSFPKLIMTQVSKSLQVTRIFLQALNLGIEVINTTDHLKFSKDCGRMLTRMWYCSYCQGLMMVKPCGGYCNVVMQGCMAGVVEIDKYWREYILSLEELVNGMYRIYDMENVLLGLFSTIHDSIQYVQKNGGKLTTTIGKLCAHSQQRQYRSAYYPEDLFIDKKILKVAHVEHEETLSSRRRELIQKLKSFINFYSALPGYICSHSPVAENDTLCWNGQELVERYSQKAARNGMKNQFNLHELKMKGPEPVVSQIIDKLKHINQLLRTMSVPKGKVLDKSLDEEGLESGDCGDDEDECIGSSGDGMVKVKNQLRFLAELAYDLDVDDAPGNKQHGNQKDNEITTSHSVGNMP

monkey GPC3-His protein = target: T2, monkey GPC3-His protein (monkey); test: ELISA, monkey GPC3-His coated;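 further: Plate-coated antigen at 1 µg/mL, antibody binding 2 h at 37 °C, detected with HRP-labeled secondary antibody and TMB, absorbance at 450 nm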
T2 construct: Bought recombinant protein; also called monkey GPC3 protein

[2] = target: biotinylated labeled human GPC3 protein (produced in-house) (human, UniProt P51654 25-559, limits assumed, biotinylated (Dojindo, Cat. No. LK03); sites not stated); test: ELISA, biotinylated human GPC3 protein

Binder	OD450 at 0.0001 nM antibody [1]	OD450 at 0.001 nM antibody [1]	OD450 at 0.01 nM antibody [1]	OD450 at 0.1 nM antibody [1]	OD450 at 1 nM antibody [1]	OD450 at 10 nM antibody [1]	OD450 at 100 nM antibody [1]	OD450 at 0.0008 nM [2]	OD450 at 0.004 nM [2]	OD450 at 0.02 nM [2]	OD450 at 0.11 nM [2]	OD450 at 0.53 nM [2]	OD450 at 2.67 nM [2]	OD450 at 13.33 nM [2]	OD450 at 66.66 nM [2]	further results
B1	0.05 OD450 nm	0.09 OD450 nm	0.37 OD450 nm	1.7 OD450 nm	2.51 OD450 nm	2.6 OD450 nm	2.75 OD450 nm	–	–	–	–	–	–	–	–	–
B2	0.05 OD450 nm	0.05 OD450 nm	0.05 OD450 nm	0.06 OD450 nm	0.11 OD450 nm	0.22 OD450 nm	0.13 OD450 nm	–	–	–	–	–	–	–	–	–
B3	0.06 OD450 nm	0.05 OD450 nm	0.05 OD450 nm	0.06 OD450 nm	0.07 OD450 nm	0.08 OD450 nm	0.11 OD450 nm	–	–	–	–	–	–	–	–	–
B4	0.05 OD450 nm	0.05 OD450 nm	0.06 OD450 nm	0.12 OD450 nm	0.14 OD450 nm	0.24 OD450 nm	0.16 OD450 nm	–	–	–	–	–	–	–	–	–
B5	0.05 OD450 nm	0.06 OD450 nm	0.1 OD450 nm	0.24 OD450 nm	0.17 OD450 nm	0.34 OD450 nm	0.25 OD450 nm	–	–	–	–	–	–	–	–	–
B6	0.05 OD450 nm	0.05 OD450 nm	0.06 OD450 nm	0.14 OD450 nm	0.46 OD450 nm	1.2 OD450 nm	1.24 OD450 nm	–	–	–	–	–	–	–	–	–
B7	0.05 OD450 nm	0.07 OD450 nm	0.17 OD450 nm	0.76 OD450 nm	1.12 OD450 nm	1.41 OD450 nm	1.84 OD450 nm	–	–	–	–	–	–	–	–	–
B8	–	–	–	–	–	–	–	–	–	–	–	–	–	–	–	OD450 at 0.0001 nM (monkey GPC3-His protein): 0.24 OD450; OD450 at 0.001 nM (monkey GPC3-His protein): 0.31 OD450; OD450 at 0.01 nM (monkey GPC3-His protein): 0.69 OD450; OD450 at 0.1 nM (monkey GPC3-His protein): 1.92 OD450; OD450 at 1 nM (monkey GPC3-His protein): 2.52 OD450; OD450 at 10 nM (monkey GPC3-His protein): 2.31 OD450; OD450 at 100 nM (monkey GPC3-His protein): 2.41 OD450
B9	–	–	–	–	–	–	–	0.076 OD450	0.078 OD450	0.101 OD450	0.268 OD450	0.904 OD450	1.49 OD450	1.92 OD450	2.1 OD450	–
B10	–	–	–	–	–	–	–	0.073 OD450	0.072 OD450	0.076 OD450	0.139 OD450	0.584 OD450	1.37 OD450	1.74 OD450	1.92 OD450	–
B11	–	–	–	–	–	–	–	0.087 OD450	0.112 OD450	0.218 OD450	0.634 OD450	1.57 OD450	2.1 OD450	2.2 OD450	2.22 OD450	–
B12	–	–	–	–	–	–	–	0.076 OD450	0.072 OD450	0.087 OD450	0.207 OD450	0.909 OD450	1.48 OD450	1.83 OD450	2.07 OD450	–
B13	–	–	–	–	–	–	–	0.092 OD450	0.099 OD450	0.173 OD450	0.491 OD450	1.29 OD450	1.95 OD450	2.12 OD450	2.09 OD450	–
B14	–	–	–	–	–	–	–	0.083 OD450	0.088 OD450	0.14 OD450	0.353 OD450	1.04 OD450	1.78 OD450	2.04 OD450	2.03 OD450	–
